{"source": "the nanobody polyreactivity screen of Harvey et al. (2022)", "data": [{"test": "yeast display, Sf9 membrane polyspecificity reagent, FACS + sequencing; frameworks hold sequencing errors", "summary_of_the_method": "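Polyreactivity labels are assigned by the sorting gate from which each nanobody was recovered. The gates were low and high (top ~1%), set on anti-HA fluorescence for expression and streptavidin fluorescence for reagent binding. Before sorting, galactose-induced (36–48 hours) yeast display cells were stained for 1 hour at 4 °C with 10% biotinylated, detergent-solubilized Sf9 membrane reagent.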", "values": [{"sequence": "QVQLVESGGGLVQAGGSLRLSCAASGRIFKYYDMGWYRQAPGKERELVARISSGGGRTYYADSVKGRFKISRDNAKNTVYLQMNSLKPEDTAVYYCAADPPASYHTWYGYWGQGTQVTVSS", "polyreactivity (PSR sort gate)": "high polyreactivity"}, {"sequence": "QVQLVESGGGLVQAGGSLRLSCAASGRIFKYYVMGWYRQAPGKERELVAGISSSGVSTYYADSVKGRFTISRDNAKNTVYLQMNSLKPEDTAVYYCNAKSRTGYGRGDYWGQGTQVTVSS", "polyreactivity (PSR sort gate)": "high polyreactivity"}, {"sequence": "QVQLVESGGGLVQAGGSLRLSCAASGRIFLGNAMGWYRQAPGKDRELVAAITNGGGSTYYADSVKGRFTISRDNAKNTVYLQMNSLKPEDTAVYYCARGYKKSVQRFEYWGQGTQVTVSS", "polyreactivity (PSR sort gate)": "high polyreactivity"}, {"sequence": "QVQLVESGGGLVQAGGSLRLSCAASGRIFLGNAMGWYRQAPGKERELVAAITNGGGSTYYADSVKGRFTISRDNAKNTVYLQMNSLKPEDTAVYYCAAPVRQSSYTRYDSWGQGTQVTVSS", "polyreactivity (PSR sort gate)": "high polyreactivity"}, {"sequence": "QVQLVESGGGLVQAGGSLRLSCAASGRIFLGNAMGWYRQAPGKERELVAAITNGGGSTYYADSVKGRFTISRDTAKNTVYLQMNSLKPEDTAVYYCARGYKKSVQRFEYWGQGTQVTVSS", "polyreactivity (PSR sort gate)": "high polyreactivity"}, {"sequence": "QVQLVESGGGLVQAGGSLRLSCAASGRIFLGYTMGWYRQAPGKERELVAAISYSGGSTYYADSVKGRFTISRDYAKNTVYFQMNSLKPEDTAVYYCNKVYSIRGYWGQGTQVTVSS", "polyreactivity (PSR sort gate)": "high polyreactivity"}, {"sequence": "QVQLVESGGGLVQAGGSLRLSCAASGRIFLGYTMGWYRQAPGKERELVASMTWSGGSTYYADSVKGRFTISRDKAKNTVYVQMNSLKPEDTAVYYCIAVFWVARGRYDYWGQGTQVTVSS", "polyreactivity (PSR sort gate)": "high polyreactivity"}, {"sequence": "QVQLVESGGGLVQAGGSLRLSCAASGRIFLHNAMGWYRQAPGKERELVAAITSGGNTNYADSVKGRFTISRDNAKNTVYLQMNSLKPEDTAVYYCATVGKVHHRLVAMDYWGQGTQVTVSS", "polyreactivity (PSR sort gate)": "low polyreactivity"}, {"sequence": "QVQLVESGGGLVQAGGSLRLSCAASGRIFLLNAMGWYRQAPGKERELVARISSGRTYYADSVKGRFTISRDNAKNTVFLQMISLKPEDTAVYYCNATVSSSKFRYFYVNPYDYWGQGTQVTVSS", "polyreactivity (PSR sort gate)": "low polyreactivity"}, {"sequence": "QVQLVESGGGLVQAGGSLRLSCAASGRIFLNYDMGWYRQAPGKERELVADISISGSTDYADSVKGRFTISRDNAKNTVYLQMNSLKPEDTAVYYCATSFYVSDYYVPYEMGYWGQGTQVTVSS", "polyreactivity (PSR sort gate)": "low polyreactivity"}, {"sequence": "QVQLVESGGGLVQAGGSLRLSCAASGRIFLQNAMGWYRQAPWKERELVASISSSGGTTYYADSVKGRFTISRDNAKNTVYLQMNSLKPEDTAVYYCAADYGHYSTPMDYWGQGTQVTVSS", "polyreactivity (PSR sort gate)": "low polyreactivity"}, {"sequence": "QVQLVESGGGLVQAGGSLRLSCAASGRIFLRNAMGWYRQAPGKERELVATITSRGGSTYYADSVRGRFTISRDNAKNTVYLQMNSLKPEDTAVYYCAAKVAWGHWRGYDYWGQGTQVTVSS", "polyreactivity (PSR sort gate)": "low polyreactivity"}, {"sequence": "QVQLVESGGGLVQAGGSLRLSCAASGRIFLSNAMGWYIQAPGKEREFVAAISWRGGSTYYADSVKGRFTISRDNAKNTVYLQMNSLKPEDTAVYYCAVDVRYYYGRSYDYWGQGTQVTVSS", "polyreactivity (PSR sort gate)": "high polyreactivity"}, {"sequence": "QVQLVESGGGLVQAGGSLRLSCAASGRIFLSYAMGVYRQAPGKERELVAGITGTGGRTYYADSVKGRFTISRDNAKNTVYLLMNSLIPEDTAVSYCAAQRRDNIDPKHYYWGQGTQVTVSS", "polyreactivity (PSR sort gate)": "low polyreactivity"}, {"sequence": "QVQLVESGGGLVQAGGSLRLSCAASGRIFLSYTMGWYRQAPGKERELVAAITSGGSTYYADSVKGRFTISRDNAKNTVYLQMNSLKPEDTAVYYCATDYGYSWYDYWGQGTQVTVSS", "polyreactivity (PSR sort gate)": "low polyreactivity"}, {"sequence": "QVQLVESGGGLVQAGGSLRLSCAASGRIFLTNTMGWYRQAPGKERELVAGISRGGRTYYADSVKGRFTISRDNAKNTVYLQMNSLKPEDTAVYYCNARLRHSQYAYYYWGQGTQVTVSS", "polyreactivity (PSR sort gate)": "high polyreactivity"}, {"sequence": "QVQLVESGGGLVQAGGSLRLSCAASGRIFLVNTMGWYRQAPGKERELVATITFSVVRTYYADSVKGRFTISRDNAKNSVYLQMNSLKPEVTAVYYCAKQHLVSVPEMYYWGQGTQVTVSS", "polyreactivity (PSR sort gate)": "low polyreactivity"}, {"sequence": "QVQLVESGGGLVQAGGSLRLSCAASGRIFLVYAMGWYRQAPGKERELVAAITKRGGSTYYADSVKGRFTISRDNAKNTVYLQMNSLKPEDTAVYYCAADGYTRGYDYWGQGTQVTVSS", "polyreactivity (PSR sort gate)": "high polyreactivity"}, {"sequence": "QVQLVESGGGLVQAGGSLRLSCAASGRIFLYAMGWYRQAPGKERELVAAINRGGSTYYADSVKGRFTISRDNAKNTVYLEMNSLKPEDTAVYYCAAKRLTCRQHDYWGQGTQVTVSS", "polyreactivity (PSR sort gate)": "high polyreactivity"}, {"sequence": "QVQLVESGGGLVQAGGSLRLSCAASGRIFLYYAMGWYRQAPGKERELVAAISRRGASTYYADSVKGRFTISRDNAKNTVYLQMNSLKPEDTAVYYCATVPGKSGDYWGQGTQVTVSS", "polyreactivity (PSR sort gate)": "high polyreactivity"}, {"sequence": "QVQLVESGGGLVQAGGSLRLSCAASGRIFLYYAMGWYRQAPGKERELVAAITWSGGSTYYADSVKGRFTISRDNAKNTVYLQMNSLKPEDTAVYYCAADYLYGQTIYQVPSHYYYWGQGTQVTVSS", "polyreactivity (PSR sort gate)": "low polyreactivity"}, {"sequence": "QVQLVESGGGLVQAGGSLRLSCAASGRIFLYYNMGWYRQAPGKERELVADITWRGGSTYYADSVKGRFTISRDNAKNTVYLQMNSLKPEDTAVYYCNAVSVSSKRSDYWGQGTQVTVSS", "polyreactivity (PSR sort gate)": "low polyreactivity"}, {"sequence": "QVQLVESGGGLVQAGGSLRLSCAASGRIFNGNALGWYRQAPGNERELVAAISSGGRTYYADSVKGRFTISRDNAKNTVYLQMNSLKPEDTAVYYCNARGYSGRVIPEYYYWGQGTQVTVSS", "polyreactivity (PSR sort gate)": "high polyreactivity"}, {"sequence": "QVQLVESGGGLVQAGGSLRLSCAASGRIFNGNAMGWYRQAPGKESELVAAISTSGGRTYYADSVKGRFTISRDNAKNTVYLQMNSLKPEDTAVYYCAARYFRRDYIDYDLWGQGTQVTVSS", "polyreactivity (PSR sort gate)": "low polyreactivity"}, {"sequence": "QVQLVESGGGLVQAGGSLRLSCAASGRIFNGYAMGWYRQAPGKERELVAAISKSGTRTYYADSVKGRFTISRDNAKNTVYLQMTSLKPEDTAVYYCNARVYRYDTYNEYYYWGQGTQVTVSS", "polyreactivity (PSR sort gate)": "high polyreactivity"}, {"sequence": "QVQLVESGGGLVQAGGSLRLSCAASGRIFNIYAMGWYRQAPGKERELVAAIRWNGGSTYYADSVKGRFTISRDNAKYTVYLQMYSLKPEDSAVYYCAAARRRRFYDYYNAWYDVDYWGQGTQVSVSS", "polyreactivity (PSR sort gate)": "low polyreactivity"}, {"sequence": "QVQLVESGGGLVQAGGSLRLSCAASGRIFNKNAMGWYRQAPGKERELVAAISWSGTSTYYADSVKGRFTISRDTAKNTVYLQMHSLKPEDTAVYYCAAADFYYTGADDYWGQGTQVTVSS", "polyreactivity (PSR sort gate)": "high polyreactivity"}, {"sequence": "QVQLVESGGGLVQAGGSLRLSCAASGRIFNKNAMGWYRQAPGKERELVAAITYSGGSTYYADSVKGRFTISRDNAKNTVYLQMNSLKPEDTAVYYSARDLYYVYSFAPYRYEYWGQGTQVTVSS", "polyreactivity (PSR sort gate)": "low polyreactivity"}, {"sequence": "QVQLVESGGGLVQAGGSLRLSCAASGRIFNPNAMGWYRQAPGKERELVAAITSGDSTNYADSVKGRFTISRDNAKNTVYLQMNSLKPEDTAVYYCAAGPSKRPPWLRQGGYDYWGQGTQVTVSS", "polyreactivity (PSR sort gate)": "low polyreactivity"}, {"sequence": "QVQLVESGGGLVQAGGSLRLSCAASGRIFNPYAMGWYRQAPWKERELVAAIRRSGVDTYYADSVKGRFTNSRDNAKNTVYFQMNSLKPEDTAVYYCNAVYKRIGYSEFDYWGQGTQVTVSS", "polyreactivity (PSR sort gate)": "low polyreactivity"}, {"sequence": "QVQLVESGGGLVQAGGSLRLSCAASGRIFNQYGMGWYRQAPGKERELVAAIRSGDSTNYADSVKGRFTISRDNAKNTVYLQMNSLKPEDTAVYYCKAVPSQHDEFDYWGQGTQVTVSS", "polyreactivity (PSR sort gate)": "low polyreactivity"}, {"sequence": "QVQLVESGGGLVQAGGSLRLSCAASGRIFNRYAMGWYRQAPGKERELVASISLSGDSTYYADSVKGRFTISRDNAKNTVYLQMNSLKPEDTAVYYCAVEGLGAAVYAGDRYDYWGQGTQVTVSS", "polyreactivity (PSR sort gate)": "low polyreactivity"}, {"sequence": "QVQLVESGGGLVQAGGSLRLSCAASGRIFNSYGMGWYRHAPGKEREFVAAISRSGGITYYADSVKGRFTISRDNAKNTVYLQMNSLKPEDSAVYYCAADYYWRRQRQVGYWGQGTQVTVSS", "polyreactivity (PSR sort gate)": "high polyreactivity"}, {"sequence": "QVQLVESGGGLVQAGGSLRLSCAASGRIFNVYAMGWYRQAPGKERELVASITSAGSTYYADSVKGRFTISRDNAKNTVYLQMNSLKPEDTAVYYCAADSYSVYYYTYDSWGQGTQVTVSS", "polyreactivity (PSR sort gate)": "low polyreactivity"}, {"sequence": "QVQLVESGGGLVQAGGSLRLSCAASGRIFNWYAMGWYRKAPGKERELVAAISTDGSTYYADSVKGRFTISRDNAKNTVFLQMNSLKPEDTAVYYCAAVPGYTHLWGGPFDYWGQGTQVTVSS", "polyreactivity (PSR sort gate)": "low polyreactivity"}, {"sequence": "QVQLVESGGGLVQAGGSLRLSCAASGRIFNYYAMGWYRQAPGKERELVAAISARGGSTYYADSVKGRFTISRDNAKNTVYLQMNSLKPEDNAVYYCAKRLYYSYGKYLLGAYYYWGQGTQVTVSS", "polyreactivity (PSR sort gate)": "high polyreactivity"}, {"sequence": "QVQLVESGGGLVQAGGSLRLSCAASGRIFNYYAMGWYRQAPGKERELVAAISARGGSTYYADSVKGRFTISRDNAKNTVYLQMNSLKPEDTAVYYCAVSSGSYGYGYWGQGTQVTVSS", "polyreactivity (PSR sort gate)": "high polyreactivity"}, {"sequence": "QVQLVESGGGLVQAGGSLRLSCAASGRIFNYYAMGWYRQAPGKERELVATISRNGGRTYYADSVKGRFTISRDNAKNTVYLQMNSLKPEVTAVYYCATDGLYRYDYWGQGTQVTVSS", "polyreactivity (PSR sort gate)": "high polyreactivity"}, {"sequence": "QVQLVESGGGLVQAGGSLRLSCAASGRIFNYYAMGWYRQAPGKVTEFVASITSRGGTTYYADSVKGRFTISRDNAKNTVYLQMNCLKTEDTAVYFCAAVTRQGSRRSRMNYWGQGTQVTVSS", "polyreactivity (PSR sort gate)": "high polyreactivity"}, {"sequence": "QVQLVESGGGLVQAGGSLRLSCAASGRIFPANAMGWYRQAPGKERELVAAISSSGGSTYYADSVKGRFTISRDNAKNTVYLQMNSLKPEDTAVYYCAKVHYRWPRVTWPNVWWSFEYWGQGTQVTVSS", "polyreactivity (PSR sort gate)": "low polyreactivity"}, {"sequence": "QVQLVESGGGLVQAGGSLRLSCAASGRIFPAYAMGWYRQAPGKERELVASIRRGGITYADSVKGRFTSSRDNAKNTVYLQMNSLKPEDTAVYYCNADKYGPSAYDYWGQGTQVTVSS", "polyreactivity (PSR sort gate)": "low polyreactivity"}, {"sequence": "QVQLVESGGGLVQAGGSLRLSCAASGRIFPAYAMGWYRQPPGKERELVASIRRGGITYADSVKGRFTISRDNAKNTVYLQMNSLKPEDTAVYYCARPQWRDWYGYWGQGTQVTVSS", "polyreactivity (PSR sort gate)": "low polyreactivity"}, {"sequence": "QVQLVESGGGLVQAGGSLRLSCAASGRIFPAYAMGWYRQSPGKERELVASIRRGGITYADSVKGRFTISRDNAKNTVSLQMTSLNPEDTAVYYCNAHYRGWGYHMDYWGQGTQVTGSS", "polyreactivity (PSR sort gate)": "low polyreactivity"}]}]}
